Assay [1] deals with T1, recombinant human PD-1/Fc fusion protein (R&D Systems) (human, UniProt Q15116 25-167).
T1 construct: Bought protein; also called immobilized PD-1; not shown: human Fc portion of the bought fusion protein
The assay can be described thus: SPR (Biacore T100), monomeric Fab over covalently immobilised PD-1/Fc; range of fit Kd. The text has this:
Fractions from the purification column were collected and tested in the Caliper LabChip® system. Only fractions containing pure monomeric Fabs were selected for SPR analysis. Beginning with concentrations determined from the Caliper LabChip®, dilution series were made for each Fab and tested on a Biacore® T100 with the standard kinetic affinity wizard against covalently immobilized PD-1/Fc fusion protein.
For orientation: SPR reads the build-up and loss of mass on a sensor chip optically.

The target of assay [2] is T2, homologous Fc (R&D Systems), Fc control surface (human, UniProt P01857-1 100-330 = IgG part, limits assumed).
T2 construct: domain: Fc; Counter-screen surface in the SPR assay; also called human Fc portion
The assay can be described thus: SPR (Biacore 2000), Fc immobilised on a CM5 chip. The text has this:
Biacore® instruments incorporate microfluidics technology and surface plasmon resonance (SPR). The angle of polarized light reflecting from the side of a gold-coated sensor opposite to the solution phase is a function of the evanescent wave extending into the solution phase and sensitive to the refractive index near that interface. This refractive index is proportional to the mass density of adsorbates (e.g., an antigen or antibody) near the sensor chip interface, and reported in Response Units. […] Time-resolved signals were acquired from all surfaces simultaneously, and the signal from the blank control surface was subtracted as a negative control.

For assay [3], the target named is T3, human PD-1 (Programmed Cell Death 1), expressed on cells (human, UniProt Q15116 25-288).
T3 construct: also called human PD-1 on 293 cells
T3 sequence (Q15116 25-288 limits assumed): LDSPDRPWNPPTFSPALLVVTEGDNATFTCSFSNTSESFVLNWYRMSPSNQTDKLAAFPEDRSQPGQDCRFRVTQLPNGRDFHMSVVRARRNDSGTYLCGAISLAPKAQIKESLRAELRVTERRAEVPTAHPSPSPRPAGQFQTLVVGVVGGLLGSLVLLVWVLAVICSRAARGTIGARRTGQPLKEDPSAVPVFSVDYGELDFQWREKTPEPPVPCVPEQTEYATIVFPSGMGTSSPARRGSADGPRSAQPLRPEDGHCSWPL
As to the kind of experiment: cell binding; 0.2 ug/ml IgG on activated human CD4+ cells, 37 C. As for the experimental part:
(§1) 293 cells were transfected to express PD-1 on their cell membranes. Human CD4⁺ cells were activated by incubation with anti-CD3/anti-CD28 beads (approximately 1 bead: 1-2 cells) for 48-72 hours at 37° C. Rhesus CD4⁺ cells (2×10⁶ cells/mL) were activated by incubation in plates coated with 1 μg/mL anti-CD3/anti-CD28 for 24-72 hours at 37° C.

The target of assay [4] is T1, recombinant human PD-1/Fc fusion …. As to the kind of experiment: solution-phase ELISA of IgG with PD-1/Fc; mean ± standard error of the mean. As for the experimental part:
High-binding 96-well ELISA plates were coated with 50 μL 2 μg/mL PD-1/Fc overnight. After washing and blocking, 50 μL of each PD-1/Fc: IgG mixture was transferred to the ELISA plate, incubated for 30 minutes, washed, incubated with goat anti-mouse antibody conjugated to HRP (human absorbed) for one hour, washed, developed with 10-Acetyl-3,7-dihydroxyphenoxazine ([…]) for three minutes, and read on a fluorescent plate reader. All incubations occurred at room temperature. Data were analyzed as described in K. High et al. Several replicates were conducted on multiple plates and multiple days and analyzed independently to determine a range of experimental equilibrium affinity Kd values.

Assay [5] addresses T4, rhesus PD-1 naturally expressed on activated rhesus CD4+ cells (rhesus macaque, UniProt B0LAJ2 25-288). The assay can be described thus: cell binding; 1.0 ug/ml IgG on activated rhesus CD4+ cells, 37 C. As for the experimental part: as §1
Assay [6] addresses T3, human PD-1 (Programmed Cell Death 1), …. As to the kind of experiment: inhibition of recombinant PD-L1/Fc binding to 293 cells expressing human PD-1 by 20 ug/ml IgG, 4 C. As for the experimental part: as §1
For assay [7] the target is unchanged. As to the kind of experiment: inhibition of recombinant PD-L1/Fc binding to activated human CD4+ cells by 0.2 ug/ml IgG, 37 C (mean of 2). As for the experimental part: as §1
In assay [8] the target is T4, rhesus PD-1 naturally expressed on …. As to the kind of experiment: inhibition of recombinant PD-L1/Fc binding to activated rhesus CD4+ cells by 0.2 ug/ml IgG, 37 C (mean of 2). On the procedure:
as §1

The record followed here is patent US20110008369A1 (Merck Sharp & Dohme, published 2011).

T1 sequence (Q15116 25-167 limits assumed): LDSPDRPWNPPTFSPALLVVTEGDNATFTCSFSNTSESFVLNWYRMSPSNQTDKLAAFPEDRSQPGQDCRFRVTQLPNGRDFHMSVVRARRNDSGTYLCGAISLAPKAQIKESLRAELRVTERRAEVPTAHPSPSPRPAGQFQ
T4 sequence (B0LAJ2 entry or part of it limits assumed): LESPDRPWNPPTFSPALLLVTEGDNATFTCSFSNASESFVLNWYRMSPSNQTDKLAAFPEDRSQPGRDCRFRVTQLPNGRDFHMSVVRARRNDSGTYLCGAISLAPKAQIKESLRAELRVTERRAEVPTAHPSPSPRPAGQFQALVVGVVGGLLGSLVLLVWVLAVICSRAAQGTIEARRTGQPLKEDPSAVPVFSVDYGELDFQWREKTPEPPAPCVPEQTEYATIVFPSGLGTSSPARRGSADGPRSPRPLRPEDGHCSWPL

B1: monomeric Fab of mAb 3H4 (Fab, V domains shown)
VH: QIQLQQSGPELVKPGASVKISCKASGYTFTDYYINWVKQKPGQGLEWIGWIYPGSVNTKYNEKFRGKATLTVDTSSSTAYIQLSGLTSEDTAVYFCARYSNWFFDVWGAGTAVTVS
VL: DIVMTQSPSSLSASLGERVSLTCRASQEISGYLSWLQQKPDGTIKRLIYAASTLDSGVPKRFSGSRSGSDYSLSISSLESEDFADYYCLQYASYPYTFGGGTKLEIKR
notes: also called 3H4 Fab
As usually defined, the Kd is the constant that tells how readily two partners part at equilibrium. With B1, the Kd in assay [1] fell in the range of 63 to 77 nM.

B2: mAb 3H4 (antibody, V domains shown)
VH: B1 VH
VL: B1 VL
notes: Murine IgG from a hybridoma
For the molecule B2, in assay [2], the binding result is listed as “no binding (tested: 5 ug/mL (hybridoma supernatant))”. In assay [3], this molecule displayed an MFI of 130 MFI. The Kd in assay [4] is 0.011 nM.

B3: monomeric Fab of mAb 1B8 (Fab, V domains shown)
VH: EVQLVLSGGGFVQPGGSLKLSCAASGFTFSSYAMSWVRQNPERRLVWVATITGGGRNTYYPDSVKGRFTISRDNAKNTLYLQMSSLRSEDTAMYYCTRQGYDGYTWFAYWGQGTLVTVS
VL: not shown
notes: also called 1B8 Fab
As for B3, the Kd in assay [1] was 5.3 to 7 nM.

B4: mAb 1B8 (antibody, V domains shown)
VH: B3 VH
VL: not shown
notes: Murine IgG from a hybridoma; also called murine 1B8; fully murine 1B8 mAb
What is called % inhibition is the drop in the measured response relative to a control, in per cent. As to B4, the binding result in assay [2] is on record as “no binding (tested: 5 ug/mL (hybridoma supernatant))”. Further, the MFI in assay [3] turned out to be 145 MFI; in assay [5], 1190 MFI. Further, the Kd in assay [4] turned out to be 0.03 nM. For the same molecule, the “% inhibition” value in assay [6] came to 97.6%; in assay [7], 82.1%; in assay [8] it was 82.3%.

B5: mAb 20B3.1 (antibody, V domains shown)
VH: EVKLVESGGGLVKPGGSLKLSCAASGFTFSSFGMSWVRQTPEKRLEWVATISGGGSNTYYPDSVKGRFTISRDNAKNNLYLQMTSLTSEDTALYYCTRIYDVAWFAYWGQGTLVTVS
VL: not shown
notes: Murine IgG from a hybridoma
For the molecule B5, the binding result in assay [2] is recorded as “no binding (tested: 5 ug/mL (hybridoma supernatant))”. The MFI in assay [3] was determined as 154 MFI; in assay [5], 1240 MFI. Besides, the “% inhibition” value in assay [6] worked out at 98.2%; in assay [7], 59.6%; in assay [8] it was 75.3%.

B6: mAb 7G3 (antibody, V domains shown)
VH: QVQLQQSGTELVRPGVSVKISCKGSGYSFTDYALHWMKQSHAKSLEWIGVISTHYGDTVYNQRFKGKATMTVDKSSSTAYMELARLTSEDSAIYYCAREGYGSLFYFDQWGQGTPLTVS
VL: CLMTQTPLSLPVSLGDQASISCRSSQTIVHSDGNTYLEWYLQKSGQSPKLLIYKVSNRFSGVPDRFSGSGSGTDFTLKISRVEAEDLGVYYCFQGSHVPYTFGGGTRLEIRR
notes: Murine IgG from a hybridoma
As for B6, the binding result in assay [2] is given as “no binding (tested: 5 ug/mL (hybridoma supernatant))”. Moreover, the MFI in assay [3] was found to be 129 MFI; in assay [5] it was 655 MFI. Further, the “% inhibition” value turned out to be 92.7% in assay [6], 57.8% in assay [7] and 25.5% in assay [8].

B7: mAb 1.8A10 (antibody, V domains shown)
VH: EVQLVESGGGLVKPGGSLKLSCAASGFTFSNYDMSWIRQTPEKRLEWVAYISGGGGNTYYPDTLKGRFTISRDNAKNTLYLQMSSLKSEDTAMFYCVRISLTGIFDYWGQGTTLTVSS
VL: DVLMTQTPLSLPVSLGDQASISCRSSQSIVQSNGNTYLEWYLQKPGQSPKLLIYKVSNRFSGVPDRFSGSGSGTDFTLKISRVEAEDLGVYYCFQGSHVPWTFGGGTKLEIKR
notes: Murine IgG from a hybridoma
Consider B7, for which, in assay [2], the binding result is “no binding (tested: 5 ug/mL (hybridoma supernatant))”. Further, the MFI in assay [3] was 129 MFI; in assay [5] it was 310 MFI. In addition, the Kd in assay [4] turned out to be 0.44 nM. The “% inhibition” value in assay [6] amounted to 99.4%; in assay [7] it was 51.7%; in assay [8], 24%.

B8: monomeric Fab of mAb 1.8A10 (Fab, V domains shown)
VH: B7 VH
VL: B7 VL
notes: also called 1.8A10 Fab
On to B8, for which, in assay [1], the Kd is 34 to 43 nM.

B9: mAb 2.3A9 (antibody, V domains shown)
VH: QVQLQQSDAELVKPGTSVKISCKASGYTFTDHAIHWLKQEPDQGLEWIGYISPGYGDIEYNEKFKGKATLTADKSSSTAYMQLSSLTSEDSAVYFCKVTTGYWGQGTTLTVS
VL: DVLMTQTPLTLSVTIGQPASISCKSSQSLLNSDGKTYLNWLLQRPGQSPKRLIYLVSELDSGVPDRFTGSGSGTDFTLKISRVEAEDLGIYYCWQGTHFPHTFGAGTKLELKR
notes: Murine IgG from a hybridoma
Regarding B9, the binding result in assay [2] is listed as “no binding (tested: 5 ug/mL (hybridoma supernatant))”. For the same molecule, the MFI in assay [3] came out at 134 MFI.

B10: mAb 1G7 (antibody, V domains shown)
VH: EIQLQQSGPELVKPGASVKVSCKASGYAFTSYNIYWVKQSHGKSLEWIGYIDLYNGDTSYNEKFKGKATLTVDKSASTAYMHLNSLTSEDSAVYYCSREGRLSFDYWGQGTLVTVSA
VL: DIVLTQSPASLAVSLGQRATISCRASESVDSYGNSFMNWYQQKPGQPLKLLIYLASNLDSGVPARFSGSGSGTDFSLTIDPVEADDPATYYCQQNNEVPLTFGAGTKLELKR
notes: Murine IgG from a hybridoma
In the case of B10, the binding result in assay [2] is recorded as “no binding (tested: 5 ug/mL (hybridoma supernatant))”. Also, the MFI was 137 MFI in assay [3] and 812 MFI in assay [5]. Besides, the figures for the “% inhibition” value in assay [6], in assay [7] and in assay [8] were 98.8%, 74.3% and 56.5%, respectively.
